Biological target: Salmonella FraB deglycase, wild type (Salmonella enterica)
Test: native MS

Substance: Salmonella FraB deglycase, wild type (enzyme)
- Kd: 31 to 63 nM

— publication PMC6885551
